B1: C9orf9 (natural protein, human, UniProt Q96E40 1-222, looked up)
chain: MNEVKESLRSIEQKYKLFQQQQLTFTAALEHCRENAHDKIRPISSIGQVQSYMEHYCNSSTDRRVLLMFLDICSELNKLCQHFEAVHSGTPVTNNLLEKCKTLVSQSNDLSSLRAKYPHDVVNHLSCDEARNHYGGVVSLIPLILDLMKEWIAHSEKLPRKVLQHVSEPQAHQESTRGAARPAQAIGTQPRATKHKCRQLTKASLKPRGCSKPPWRPPGGKL
notes: C9orf9; protein on the human proteome microarray; source: spotted on the HuProt human proteome microarray
B2: CCNB1IP1 (natural protein, human, UniProt Q9NPC3 1-277, looked up)
chain: MSLCEDMLLCNYRKCRIKLSGYAWVTACSHIFCDQHGSGEFSRSPAICPACNSTLSGKLDIVRTELSPSEEYKAMVLAGLRPEIVLDISSRALAFWTYQVHQERLYQEYNFSKAEGHLKQMEKIYTQQIQSKDVELTSMKGEVTSMKKVLEEYKKKFSDISEKLMERNRQYQKLQGLYDSLRLRNITIANHEGTLEPSMIAQSGVLGFPLGNNSKFPLDNTPVRNRGDGDGDFQFRPFFAGSPTAPEPSNSFFSFVSPSRELEQQQVSSRAFKVKRI
notes: CCNB1IP1; protein on the human proteome microarray; source: spotted on the HuProt human proteome microarray
B3: CDCA3 (natural protein, human, UniProt Q99618 1-268, looked up)
chain: MGSAKSVPVTPARPPPHNKHLARVADPRSPSAGILRTPIQVESSPQPGLPAGEQLEGLKHAQDSDPRSPTLGIARTPMKTSSGDPPSPLVKQLSEVFETEDSKSNLPPEPVLPPEAPLSSELDLPLGTQLSVEEQMPPWNQTEFPSKQVFSKEEARQPTETPVASQSSDKPSRDPETPRSSGSMRNRWKPNSSKVLGRSPLTILQDDNSPGTLTLRQGKRPSPLSENVSELKEGAILGTGRLLKTGGRAWEQGQDHDKENQHFPLVES
notes: CDCA3; protein on the human proteome microarray; source: spotted on the HuProt human proteome microarray
B4: CRYZ (natural protein, human, UniProt Q08257 1-329, looked up)
chain: MATGQKLMRAVRVFEFGGPEVLKLRSDIAVPIPKDHQVLIKVHACGVNPVETYIRSGTYSRKPLLPYTPGSDVAGVIEAVGDNASAFKKGDRVFTSSTISGGYAEYALAADHTVYKLPEKLDFKQGAAIGIPYFTAYRALIHSACVKAGESVLVHGASGGVGLAACQIARAYGLKILGTAGTEEGQKIVLQNGAHEVFNHREVNYIDKIKKYVGEKGIDIIIEMLANVNLSKDLSLLSHGGRVIVVGSRGTIEINPRDTMAKESSIIGVTLFSSTKEEFQQYAAALQAGMEIGWLKPVIGSQYPLEKVAEAHENIIHGSGATGKMILLL
notes: CRYZ; protein on the human proteome microarray; source: spotted on the HuProt human proteome microarray
B5: CSRP1 (natural protein, human, UniProt P21291 1-193, looked up)
chain: MPNWGGGKKCGVCQKTVYFAEEVQCEGNSFHKSCFLCMVCKKNLDSTTVAVHGEEIYCKSCYGKKYGPKGYGYGQGAGTLSTDKGESLGIKHEEAPGHRPTTNPNASKFAQKIGGSERCPRCSQAVYAAEKVIGAGKSWHKACFRCAKCGKGLESTTLADKDGEIYCKGCYAKNFGPKGFGFGQGAGALVHSE
notes: CSRP1; protein on the human proteome microarray; source: spotted on the HuProt human proteome microarray
B6: CSRP3 (natural protein, human, UniProt P50461 1-194, looked up)
chain: MPNWGGGAKCGACEKTVYHAEEIQCNGRSFHKTCFHCMACRKALDSTTVAAHESEIYCKVCYGRRYGPKGIGYGQGAGCLSTDTGEHLGLQFQQSPKPARSVTTSNPSKFTAKFGESEKCPRCGKSVYAAEKVMGGGKPWHKTCFRCAICGKSLESTNVTDKDGELYCKVCYAKNFGPTGIGFGGLTQQVEKKE
notes: CSRP3; protein on the human proteome microarray; source: spotted on the HuProt human proteome microarray
B7: CUTA (natural protein, human, UniProt O60888 33-179, looked up)
chain: RLLLLPRVLLTMASGSPPTQPSPASDSGSGYVPGSVSAAFVTCPNEKVAKEIARAVVEKRLAACVNLIPQITSIYEWKGKIEEDSEVLMMIKTQSSLVPALTDFVRSVHPYEVAEVIALPVEQGNFPYLQWVRQVTESVSDSITVLP
notes: CUTA; protein on the human proteome microarray; source: spotted on the HuProt human proteome microarray
B8: CYB5R1 (natural protein, human, UniProt Q9UHQ9 1-305, looked up)
chain: MGIQTSPVLLASLGVGLVTLLGLAVGSYLVRRSRRPQVTLLDPNEKYLLRLLDKTTVSHNTKRFRFALPTAHHTLGLPVGKHIYLSTRIDGSLVIRPYTPVTSDEDQGYVDLVIKVYLKGVHPKFPEGGKMSQYLDSLKVGDVVEFRGPSGLLTYTGKGHFNIQPNKKSPPEPRVAKKLGMIAGGTGITPMLQLIRAILKVPEDPTQCFLLFANQTEKDIILREDLEELQARYPNRFKLWFTLDHPPKDWAYSKGFVTADMIREHLPAPGDDVLVLLCGPPPMVQLACHPNLDKLGYSQKMRFTY
notes: CYB5R1; protein on the human proteome microarray; source: spotted on the HuProt human proteome microarray

Molecular target: T1, OTULIN (OTU deubiquitinase with linear linkage specificity, FAM105B), His-tagged, biotin-labelled (human, UniProt Q96BN8 1-352, biotin (label; sites not stated))
T1 construct: OTULIN (FAM105B), cDNA in pET28a; also called HIS-OTULIN; source: E. coli BL21 (DE3), purified (His-tag Purification Resin), labelled with biotin; not shown: His6, N-terminal, kept
Assay: peptide or protein array; HuProt human proteome microarray; 5 ug/5 ml biotin-labelled LUBAC or OTULIN in solution, 1 h at room temperature; Cy5-streptavidin, scanned at 635 nm; BSA as negative control; hits: Z-score >= 3 and I_(Mean_Ratio) >= 1.4
Details: both partners purified

binding result | Binder
binds | B1
binds | B2
binds | B3
binds | B4
binds | B5
binds | B6
binds | B7
binds | B8

— article PMC8274477 (Frontiers in Cell and Developmental Biology, 2021)
